The target of the experiment is polyhistidine-tagged canine PD-L1 protein (cPD-L1-His) (dog). Kind of experiment: SPR; Biacore X100, CM5 chip, His Capture Kit: cPD-L1-His captured by immobilised anti-histidine antibody (approximately 400 RU); cPD-1-Ig or cCD80-Ig flowed over; HBS-EP+ running and dilution buffer; two state reaction model.

The term Kd denotes a measure of binding affinity in units of concentration. The substance “recombinant canine PD-1 protein (cPD-1-Ig) (Fc fusion)” gave a Kd of 25.4 nM.
“recombinant canine CD80 protein fused to rabbit IgG Fc (cCD80-Ig) (Fc fusion)” gave an equilibrium dissociation constant (Kd) of 24.3 nM.

The values are drawn from paper PMC5567082.
